Reference: article PMC3413146 (Nucleic Acids Research, 2012)

Biological target: T1, RECQL4 (endogenous) (human (endogenous in HeLa), UniProt O94761 1-1208)
T1 sequence (looked up): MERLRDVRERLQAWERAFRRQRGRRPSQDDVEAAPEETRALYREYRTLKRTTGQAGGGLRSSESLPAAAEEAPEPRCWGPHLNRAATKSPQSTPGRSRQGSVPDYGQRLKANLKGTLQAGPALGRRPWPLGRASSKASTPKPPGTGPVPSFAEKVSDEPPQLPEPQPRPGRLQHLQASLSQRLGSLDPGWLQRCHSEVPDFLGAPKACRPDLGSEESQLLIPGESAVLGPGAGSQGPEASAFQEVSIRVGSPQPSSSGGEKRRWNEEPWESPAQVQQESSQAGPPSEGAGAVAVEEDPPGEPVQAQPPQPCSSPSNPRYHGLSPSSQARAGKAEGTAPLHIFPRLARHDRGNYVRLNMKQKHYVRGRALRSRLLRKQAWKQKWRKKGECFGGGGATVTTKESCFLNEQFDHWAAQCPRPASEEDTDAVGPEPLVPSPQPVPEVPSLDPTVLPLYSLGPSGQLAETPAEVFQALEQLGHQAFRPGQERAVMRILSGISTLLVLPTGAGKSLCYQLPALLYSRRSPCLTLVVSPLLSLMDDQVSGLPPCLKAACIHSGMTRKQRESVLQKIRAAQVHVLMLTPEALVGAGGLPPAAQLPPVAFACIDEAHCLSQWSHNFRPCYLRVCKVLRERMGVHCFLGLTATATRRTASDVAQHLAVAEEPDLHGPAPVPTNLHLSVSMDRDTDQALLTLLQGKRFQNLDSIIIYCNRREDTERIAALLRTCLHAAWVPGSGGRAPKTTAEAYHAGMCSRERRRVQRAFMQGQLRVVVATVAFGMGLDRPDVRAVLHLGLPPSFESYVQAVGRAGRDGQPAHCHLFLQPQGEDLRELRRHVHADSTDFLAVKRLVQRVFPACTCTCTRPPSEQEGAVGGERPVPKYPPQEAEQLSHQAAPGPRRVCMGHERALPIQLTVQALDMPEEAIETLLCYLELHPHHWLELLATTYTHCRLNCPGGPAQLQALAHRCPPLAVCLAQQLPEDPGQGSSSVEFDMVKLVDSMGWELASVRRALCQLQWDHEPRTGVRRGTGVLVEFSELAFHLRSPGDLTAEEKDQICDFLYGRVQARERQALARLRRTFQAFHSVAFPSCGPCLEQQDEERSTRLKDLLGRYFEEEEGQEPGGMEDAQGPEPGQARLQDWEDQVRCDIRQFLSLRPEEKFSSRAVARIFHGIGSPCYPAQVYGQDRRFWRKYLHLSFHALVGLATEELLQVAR
Experiment: co-IP

B1: BLM (endogenous) (natural protein)
chain: not shown
  fold change of the co-immunoprecipitated BLM signal, S-phase against G0–G1 phase: ~5 fold
